Experimental findings from PMC2668917 are described below.

The target of this assay is GST-tagged Nup358-IR (Nup358 internal repeat/E3 ligase domain) (UniProt P49792). Description: SPR. Background: In SPR one partner is held on a chip, and binding of the other changes the refractive index at the surface.
For orientation: Kd means the equilibrium constant for the complex coming apart. A high value points to weaker binding. “SUMO-2 modified His-RanGAP1-NΔ419 (from UniProt P46061 420-589; P55854 1-92)” gave a Kd of 0.036 µM.
In the case of “SUMO-1 modified His-RanGAP1-NΔ419 (from UniProt P46061 420-589; P63165 1-97)” it was 0.007 µM; in that of “SUMO-1/2 chimera modified His-RanGAP1-NΔ419 (from UniProt P46061 420-589; P63165 1-30; P55854 26-46; P63165 52-97)”, 0.02 µM.
